In FireProtDB (doi:10.1021/bi980431i):

Conditions: Homo sapiens; pH 2.7; Thermal; DSC; glycine 0.05 M; reversible: yes; whole UniProt chain shown

B1: Lysozyme C wild type, P61626 (protein)
chain: MKALIVLGLVLLSVTVQGKVFERCELARTLKRLGMDGYRGISLANWMCLAKWESGYNTRATNYNAGDRSTDYGIFQINSRYWCNDGKTPGAVNACHLSCSALLQDNIADAVACAKRVVRDPQGIRAWVAWRNRCQNRDVRQYVQGCGV
- Tm: 64.9 °C
- heat capacity change of unfolding: 1.58 kcal/mol/K
- unfolding enthalpy (calorimetric): 114 kcal/mol
- unfolding enthalpy (van 't Hoff): 120 kcal/mol
